Results reported in article PMC2118540.
Where two headings read alike, the source gives them in different places. Each block holds one molecule with its values, some of them ahead of it.

Tests used:
Test in all cases: FRET or BRET
[1] = molecular target: HLA-A, B, C (human (endogenous in KU812))
[2] = molecular target: H-2K^b/D^b (mouse (endogenous in BMMCs))
[3] = molecular target: H-2K^b/D^b (mouse (endogenous in BMMCs)); remark: listed apart in the source

FRET efficiency (%) [1]: 14.5%
Molecule: β2-microglobulin (β2m), human (from UniProt P61769 21-119) (natural protein)

FRET efficiency (%) [2]: 8%
Molecule: β2-microglobulin (β2m), mouse (from UniProt P01887 21-119) (natural protein)

FRET efficiency (%) [1]: 20.7%
Molecule: leukocyte immunoglobulin (Ig)-like receptor (LILR) B2 (from UniProt Q8N423 22-597)

FRET efficiency (%) [3]: 13.5%
B1: paired Ig-like receptor (PIR)–B (receptor)
chain: SLPKPILRVQPDSVVSRRTKVTFLCEETIGANEYRLYKDGKLYKTVTKNKQKPENKAEFSFSNVDLSNAGQYRCSYSTQYKSSGYSDLLELVVTGHYWTPSLLAQASPVVTSGGYVTLQCESWHNDHKFILTVEGPQKLSWTQDSQYNYSTRKYHALFSVGPVTPNQRWICRCYSYDRNRPYVWSPPSESVELLVSGNLQKPTIKAEPGSVITSKRAMTIWCQGNLDAEVYFLHNEKSQKTQSTQTLQEPGNKGKFFIPSVTLQHAGQYRCYCYGSAGWSQPSDTLELVVTGIYEYYEPRLSVLPSPVVTAGGNMTLHCASDFPYDKFILTKEDKKFGNSLDTEHISSSGQYRALFIIGPTTPTHTGAFRCYGYYKNAPQLWSVPSALQQILISGLSKKPSLLTHQGHILDPGMTLTLQCFSDINYDRFALHKVGGADIMQHSSQQTDTGFSVANFTLGYVSSSTGGQYRCYGAHNLSSEWSASSEPLDILITGQLPLTPSLSVQPNHTVHSGETVSLLCWSMDSVDTFILSKEGSAQQPLRLKSKSHDQQSQAEFSMSAVTSHLSGTYRCYGAQDSSFYLLSSASAPVELTVSGPIETSTPPPTMSMPLGGLHMYLKALIGVSVAFILFLFIFIFILLRRRHRGKFRKDVQKEKDLQLSSGAEEPITRKGELQKRPNPAAATQEESLYASVEDMQTEDGVELNSWTPPEEDPQGETYAQVKPSRLRKAGHVSPSVMSREQLNTEYEQAEEGQGANNQAAESGESQDVTYAQLCSRTLRQGAAASPLSQAGEAPEEPSVYATLAAARPEAVPKDMEQ
modifications: tyrosine-phosphorylated, constitutively and after IgE stimulation (residues not given)
